From the nanobody polyreactivity screen of Harvey et al. (2022)

Assay: yeast display, Sf9 membrane polyspecificity reagent, FACS + sequencing; frameworks hold sequencing errors
How it was run: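 A nanobody's polyreactivity label depends on the gate it was sorted from. Yeast display cells were stained with 10% biotinylated, detergent-solubilized Sf9 membrane reagent for 1 hour at 4 °C, enriched on streptavidin microbeads and sorted by FACS. The low and high (top ~1%) gates were set on anti-HA fluorescence for expression and streptavidin fluorescence for reagent binding.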

Sequence	polyreactivity (PSR sort gate)
QVQLVESGGGLVQAGGSLRLSCAASGRIFRYYAMGWYRQEPGKERELVAVITRGTSTKYADSVKGRFTISRDNAKITVYLQMNSLKPEDTAVYYCAADYWYANVGFDYWGQGTQVTVSS	high polyreactivity
QVQLVESGGGLVQAGGSLRLSCAASGFIFVDYTMGWYRQAPGKERELVAAITWTGGSTYADSVKGRFTISRDNAKNTVYLQMNSLKPEDTAVYYCAAGQGPDMDYWGQGTQVTVSS	low polyreactivity
QVQLVESGGGLVQAGGSLRLSCAASGRIISINAMVWYRQAPGKERELVAAINSGGSTHYADSVKGRFTISRDNAKNTVYLQMNSLKPEDTAVYYCAARKTVSYFRVRTFDYWGQGTQVTVSS	low polyreactivity
QVQLVESGGGLVQAGGTLRLSCAASGRTFTYYAMGWSRQAPGKEREIVSAISSTGTSTYYADSVKGRFTISRDNAKNTVYLQMNSLKPEDTAVYYCNARVATYRLHSKFYYWGQGTQVTVSS	high polyreactivity
QVQLVESGGGLVQAGGSLRLSCAPSGSIFRKYAMGRYRQAPGKERELVAAIRSSGGSTYYADSVKGRFTISRDKAKNSVYFQLNSLKPEDTAVYYCAARYYRPSRYDYWGQGTQVTVSS	high polyreactivity
QVQLVESGGGLVQAGGSLRLSCAASGSIFSYYAMGWYRQAPGKERELVAAITVRGGSTYYADSVKGRFTISRDNAKNTVYLQMNSLKPEDTGVYYCAADWLDESFSYGPYYYWGQGTQVTVSS	low polyreactivity
QVQLVESGGGLVQAGGSLRISCAPSGIIFEYYALGCSRQAPGKEREVVAAIFSGGSTYYADSVKGRFTISRDNAKNTVYLLMNSLKAEDNAVYYCAAEYLAWGQGTQVTVSS	high polyreactivity
QVQLVESGGGLVQAGGSLRLSCAASGFTFGPYAMGWYRQAPGKERELVAAISQSGGRTSYADSVKGRFTISRDNAKNTVYLQMNSLKPEDTSVYYCAKRAYGYRSIYRMDYWGQGTQVTVSS	high polyreactivity
QFQLVESGGGLVQAGGSLRLSCAASGIIFLENAMGWYRQAPGKEREFVAAISRSGGITYYADSVKGRFTISRDNAKNTVYLQMNSLKPEDTAVYYCAAVGRDRYRHSPQPLYDYWGQGTQVTVSS	low polyreactivity
QVQLVESGGGLVQAGGSLRLSCAASGRTFYTNAMGWYRQAPGKERELVAAITGDGTSTYYADSVKGRFTISRDNAKNTVYLEMNSLKPEDTAVYYCNATLPDYWPYYYYQGGDDYWGQGTQVTVSS	low polyreactivity
QVQLVESWGGLVQAGGSLRLSCAASGSTSVYYAMGWYRQTPGKERELVDAITWDDGSTSYADSVKGRFTISRDNAKNTVYLQMNSLKPEDTEVYYCAKDYEYLGAFNYWGQGTQVTGSS	low polyreactivity
QVQLVESGGGLVQAGGSLRLSCAASGFIFHVYAMGWYRQAPGKERELVAAISGTGGSTYYADSVKGRFTISRDTALNTVSLQMNSLKPEDTAVYYYKAERSGNGYCGQGTQVTVSS	high polyreactivity
QVQLVESGGGLVQAGGSLRLSCAASGRTVGSYVMGWYRHAPVKERELVATISRRGGTTYYADSVKARFTISRDNAKNTVYLQMNSLKPEDTAVYYCNRVIPLASYGYGYWGQGTQVTVSS	high polyreactivity
QVQLVESGGGLVQAGGSLRLSCAASGIIFIGNAMGWYRQAPGKERELVAAISSDGDSTYYADSVKGRFTISRDNAKNTVYLQMNSLKPEDTAVYYCAKDYYPDYYGLYLWPFDYWGQGTQVTVSS	high polyreactivity
QVQLVESGGGLVQAGGSLRLSCAASGRTFPSNVMGWYRQAPGKEREFVAAITTRGGNTRYADSVKGRFTISRDNAKNTVYLQMNSLKPEDTAVYYCAAKVKPGYDYWGQGTQVTVSS	low polyreactivity
QVQLVESGGGLVQAGGSLRLSCAASGSISETNAMGWYRQAPGKERELVAAISGSGGSTYADSVKGRFTISRDNAKNTVYLQMNSLKPEDTAVYYCARDRYYTREWYWYRHDHWGQGTQVTVSS	low polyreactivity
QVQLVESGGCLVQAGGSLRLSCAATGFIFYPDAKGWYRQAPGTEMELVAVITSGGRTYYADSVKGRFTITRDNAKNTVYLQMNSLKPEDTAVYYCAALYLGLWPTDIFDYWGQGTQVTVSS	low polyreactivity
QVQLVESGGGLVQAGGSLRLSSAASGSIFAYYAMGWSRQAPGKEWELVAAITSGGNTKYADSVKGRFTISRDNAKNTVYLQMNCLKPEDTAVYYCASYRTRALWGQGYGYWGHGTQVTVSS	high polyreactivity
QVQLVESGVGLVQAGGSLRLSCAASGFIFRFYTMGWYRQAPGKERELVAAISGSGGRTYYADSVKGRFTISRDYANNTVYVQMNRLKPEDTEVYYCNKQFLYPSYDYWGQGTQVTVSS	high polyreactivity
QVQLVESGGGLVQAGGSLRLSCAASGSTFYSYVMGWYRQAPGKERELVAAITYSGGRTYYADSVKGRFTISRDNAKNTVYLQMNSLKPEDTAVYYCAKRVFNYQRYDYWGQGTQVTVSS	high polyreactivity
QVQLVDSGGGLVQAGGSLRLSCAASGFIFKGNAMGWSRQAPGKERELVAAISRSGGRTYYADSVKGRFTISRENAKNTVYLEMNSLKPEDTAVYYGATEGDSFSAYDYWVQGTQVTVSS	high polyreactivity
QVQLVESGGGLVQAGGSLRLSCAASGSTFYYNAMGWYRQAHGKERELVARISRSGGSTYADSVKGRFTISRDNAKNTVYLQMNSLKPEDTAVYYCNADAYGTPEFTSYAVRYDYWGQGTQVTVSS	low polyreactivity

Sequence	polyreactivity (PSR sort gate)
QVQLVESGGGLVQAGGSLRLSCAASGRIFPGNTMGWYRQAPGKERELVAAITRGGSTSYADSVKGRFTISRDNAKNTVYLQMNSLKPEDTAVYYCATRTHGEGTRRDSWGQGTQVTVSS	low polyreactivity
QVQLVESGGGLVQAGGSLRLSCAASGSSFVSYTMGWYRQAPGKERELVAAISYNGARTYYADSVKGRFTISRDNAKNTVYLQMNSLKPEDTAVYYCARRYYSQYDYWGQGTQVTVSS	high polyreactivity
QVQLVESGGGLVQAGGSLRLSCAASGSTFSANAMGWYRQAPGKERELVAAITYRGGNTYYADSVKGRFTISRDNAKNTVYLQMNSLKPEDTAVYYCNRDLRVRYRRMKYGYWGQGTQVTVSS	low polyreactivity
QVQLVESGGGLVQAGGSLRLTCAASGHIFFYYTMGWYRQAPGKERELVARISSDGDTYYADSVKGRFTISRDNAKNTVYLQMNSLKPEDTAVYYCAAAVLYWVGYGYWGQGTQVTVSS	low polyreactivity
QVQLVESGGGLVQAGGSLRLSCAASGRTFRVYTMGWYRQAPGKERELVAVISGRGGSTSYADSVKGRFTISRDNAKNTVDLQMNSLKPEDTAVYYCAARGRAHWHYDYWGQGTQVTVSS	high polyreactivity
QVQLVESGGGLVQAGGSLRLSCAASGFTIAQNVMGWYRQAPGKERELVAAISVSGGSTYYADSVKGRFTISRDNAKNTVYLQMNSLKPEDTAVYYCNAVAGVTKRVDLSRSGYWGLGTQVTVSS	high polyreactivity
QVQLVESGGGLVQAGGSLRLSCAASGYILYGNTMGWYRQAPGKERELVAAISGGGSTNYADSVKGRFTISRDNAKNTVYLQMNSLKPEETAVYYCAVDVKIGTDFIGVVIPGDYWGQGTQVTVSS	low polyreactivity
QVQLVESGGGLVQAGGSLRLSCAASGFTFDTYAMGWYRQAPGKERELVAAISWGGGSTFYADSVKGRFTISRDNAKNTVYLQMNSLKPEDTAVYYCAAEIPGYYVFNYGYWYYEYDYWGQGTQVTVSS	high polyreactivity
QVQLVESGGGIVQAGGSLRLSCAASGIIFSIYGMGWYRQAPGKERELVAAINSGSSTNYADSVKGRFTISRDNAKNTVYLQMNSLKREDTAVYYCNADYRYPQYYHRTWIRYDYWGQGTQVTVSS	high polyreactivity
QVQLVESGGGLVQAGGSLRLSCAASGSIFFWYTMGWYREAPGKERELVATITGSGSSTTYADSVKGRFTISRDNAKNTVYLQMNSLKPEDTAVYYCAAADIIDHSFPYDYWGQGTQVTVSS	low polyreactivity
QGQLVESAGGLGQAGGSLRLSCAASGRTLGRYVMGWYRQGPGQVRELVAAISARTGSTYYADSVKGRFTISRDNAKNTVYLQMNSLKPEDTAVYYCATKFSSYDTRVSYDYWGQGTQVTVSS	low polyreactivity
QVQLVESGGGLVQAGGSLRLSCAASGIIFRGYAMGWYRQAPGKERELVARISITGGRTYYADSVKGRFTISRDNAKNTVYLQMNSLKPEDTAVYYCAAGKYVRTVRYDYWGQGTQVTVSS	high polyreactivity
QVQLVESGGGLVQAGGSLRLSCAASGFIFVRYAMGWYRQAPGKERELVAAISSSGGTTNYADSVKGRFTISRDNAKHTVYLQMNSLKPEDTAVYYCNADYYWFFDFFDYDYWGQGTQVTVSS	low polyreactivity
QVQLVESGGGLVQAGGSLRLSCAASGFTFYRYTMGWYRPARGKESELVARITYSGGSTYYADSVKGRFTISRDNAKNTVYLQLNSVKPVDTAVYYCNARSDFYSRYGYKYDYWGQGTQVTVSS	high polyreactivity
QVQLVESGGGLVQAGGSLRLSCAASGRTFFVNAMGWYRQAPGKERELVAVISTSGGSTSYADSVKGRFTISRDNPKYTVYFQMNSLKPEDTAVYYCAALVLGPYVSSFVYQQDDSWGLGTQVTVSS	high polyreactivity
QVQLVESGGGLVQAGGSLRLTWAASGFILGYYAMGWYRQAPGKERELLPGISRSGGSTYYADSVKGRYTISRDNAKNTVYLQMNSLKPEDTSVYYCAKYPPYYTAYGWKYVYWGQGTQVTLSS	high polyreactivity
QVQLVESGRVLVQAGGSLRLSCAASGITFISYAMGWYRPAPGKQSELVAVISKSGGRTYYADSVKGSFTISRDNANNTVYLQMNSLKPEDTAVYYCAADVYLSRYEKYGYWGQGTQVTVSS	high polyreactivity
QVQLVESGGGLVQAGGSLRLSCAASGSIFGEYAMGWSRQAPGKERELVATIRQSGDSTYYADSVKGRFTISRDNAKNTVYLQMNSLKPEDTEVYYCADDLWLYDYYSEYDYWGQGTQVTVSS	low polyreactivity
QVQLVESGGGLVQAGGSLRLSCAASGRTFWYYAMGWYRQAPGKERELVAGITFTGGRTYYADSVKGRFTISRDNAKNTVYLQMNSLKPEDTAVYYCAKATEYYAESDDYDYWGQGTQVTVSS	low polyreactivity
QVQLEESGGGLVQAGGSLRLSCAASGITFNSYAMGSYRQAPGKERELVAAISGSGSSTYYADSVKGRFTISRDNAKNTVYLQMTSLKPEDTAVYYCAATGYSSWTFYTHEYWGQGTQVTVSS	low polyreactivity
QVQLVESGGGLVQAGGSLRLSCAASGSIYSTYAMGWYRQAPGKERELVAAITSDGTYADSVKGRFTISRDNARNTVYLQMNSLKPEDTAVYYCAAYYPYTRHGDYWGQGTQVTVSS	low polyreactivity
